The text below walks through data of patent US20220362357A1, “Synergistic Combinations of Amino Acid Depletion Agent Sensitizers (AADAS) and Amino Acid Depletion Agents (AADA), and Therapeutic Methods of Use Thereof” (STICHTING RADBOUD UNIVERSITAIR MEDISCH CENTRUM, priority 2018, published 2022).

This experiment deals with Nalm6, Sem and Reh cells. Briefly: ASNase and ibrutinib 7 day treatment of ALL cell lines: SubG1, PARP cleavage, amine staining, colony assay. In kind it is cell-based, human. The settings on record: 7 days; 1 IU/ml ASNase, ibrutinib 1 or 10 μM; FIGS. 4D, 4E, 4F & 4H. As to the method: BTK inhibition. […] Cell viability was then measured by cell cycle distribution, (FIGS. 4C & 4D), and by blotting for the apoptosis marker PARP and calculating the ratio between cleaved and uncleaved PARP protein or (FIG. 4E) by amine staining (FIG. 4F).

B1: ASNase: native E. coli ASNase (NCBI WP_000394140.1), used in the in vitro studies (protein, UniProt P00805 23-348, looked up)
L-asparaginase 2: LPNITILATGGTIAGGGDSATKSNYTVGKVGVENLVNAVPQLKDIANVKGEQVVNIGSQDMNDNVWLTLAKKINTDCDKTDGFVITHGTDTMEETAYFLDLTVKCDKPVVMVGAMRPSTSMSADGPFNLYNAVVTAADKASANRGVLVVMNDTVLDGRDVTKTNTTDVATFKSVNYGPLGYIHNGKIDYQRTPARKHTSDTPFDVSKLNELPKVGIVYNYANASDLPAKALVDAGYDGIVSAGVGNGNLYKSVFDTLATAAKTGTAVVRSSRVPTGATTQDAEVDDAKYGFVASGTLNPQKARVLLQLALTQTKDPQQIQQIFNQY
Regarding B1, the apoptotic killing efficacy result is reported as “relatively small effect”.
